# The nanobody polyreactivity screen of Harvey et al. (2022)
# Experiment: yeast display, Sf9 membrane polyspecificity reagent, FACS + sequencing; frameworks hold sequencing errors
# Outline: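 Galactose induction of a Saccharomyces cerevisiae BJ5465 synthetic nanobody display library ran 36–48 hours. The cells were then stained for 1 hour at 4 °C with 10% biotinylated, detergent-solubilized Sf9 membrane reagent, pulled down on streptavidin microbeads and FACS-sorted into low and high (top ~1%) gates on expression and reagent-binding fluorescence. Labels for polyreactivity follow the gate of origin.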
row,Sequence,polyreactivity (PSR sort gate)
1,QVQLVESGGGLVQAGGSLRLSCAASGGTFYYYAMGWYRQPPGKERELGAAITGTGGRTYYADSVKGRFTISRDNAKNTVSLQMNSLKPEDTAVYYCATDALYGSGYDYWGQGTQVTVSS,high polyreactivity
2,QVQLVESGGGLVQAGGSLRLSCAASGGTIAYNAMGWYRQAPWKERELVAAISSSGGRTYYADSVKGRFTITRDNAKNTVYLQMNRLKPEDTAVYYCATPVTNGFDYWGQGTQVTVSS,high polyreactivity
3,QVQLVESGGGLVQAGGSLRLSCAASGGTILLYAMGWYRQAPGKERELVAGINSGGSTYYADSVKGRFTISRDNAKNTVYLQMNSLKPEDTAVYYCNARSTRYGGDYWGQGTQVTVSS,low polyreactivity
4,QVQLVESGGGLVQAGGSLRLSCAASGGTIVWNAMGWYRQAPGKEREFVAAITSSGGSTYYADSVKGRFTISRDNEKNTVYLQMNSLKPEDTAVYYCNVDTHSSYEFNSWGQGTQVTVSS,low polyreactivity
5,QVQLVESGGGLVQAGGSLRLSCAASGGTLGTYAMGWYRQAPGKERELVASIDSGDSTYYADSVKGRFTISRDNAKNTVYLQMNSLKPEDTAVYYCAAAYFRRYTTTWYGYEYWGQGTQVTVSS,low polyreactivity
6,QVQLVESGGGLVQAGGSLRLSCAASGGTLKYYAMGLYRQAPGKERELVATISSRGGSTYYADSVKGRFTISRDNAKNTVYLQMNSLKPEDTAVYYCARRYWVQSRYPEMDYWGQGTQVTVSS,high polyreactivity
7,QVQLVESGGGLVQAGGSLRLSCAASGGTLWVNTMGWYRQAPGKERELVAAISRRGGSTYYADSVKGRFTISRDNAKNTVYLQKNSLKPEDTAVYYCAKGYSSHYWWAYDSWGQGTQVTVSS,high polyreactivity
8,QVQLVESGGGLVQAGGSLRLSCAASGHIFFYYTMGWYRPAPGKERELVAGITIGGSTNYADSVKGRFTISRDNAKNTVYLQMNSLKPEDTAVYYCNVVKYVYIYSYWEYYYWGQGTQVTVSS,low polyreactivity
9,QVQLVESGGGLVQAGGSLRLSCAASGHIFFYYTMGWYRQAPGKERELVAGITIGGSTNYADSVKGRFTISRDNAKNTVYLQMNSLKPEVTAVYYCARTVYGARSYDYWGQCTQVTVSS,low polyreactivity
10,QVQLVESGGGLVQAGGSLRLSCAASGHTFAYNAMGWYRQAPGKEREFVAAITWSTDNTYYADSVKGRFTISRDNAKNTVYLQMNTLKPEDTAVYYCAVDVYFYYRHYGYWGQGTQVTVSS,low polyreactivity
11,QVQLVESGGGLVQAGGSLRLSCAASGIFASYAMGWYRQAPGKERELVADITWRGGNTFYADSVKGRFTISRDNAKNTVYLQMNSLKPEDTAVYYCAADYRPYLRYTVRGYGYWGQGTKVTVSS,high polyreactivity
12,QVQLVESGGGLVQAGGSLRLSCAASGIFFGGYYLGWYRQAPATEMELVAGIRSGGSTYYADSVKGRFTISRDNAKNTVYLQMNSLKPEDTAVYYCAKPYYWGDYSQSDSDYWGQGTQVTVSS,low polyreactivity
13,QVQLVESGGGLVQAGGSLRLSCAASGIFGWYAMGWYRQAPGKEREFVATINWSGGRTYYADSVKGRFTISRDNAKNTVYLQMNSLKPEDTAVYYCAAENYASEYDYWGQGTQVTVSS,low polyreactivity
14,QVQLVESGGGLVQAGGSLRLSCAASGIFSIYAMGRYRQAPGKERELVAAITSGGGRTYYADSVKGRFTISRDNAKNTVYLQMNSLKPEDTAVYYCARVQRGDYDYWGQGTQVTVTS,high polyreactivity
15,QVQLVESGGGLVQAGGSLRLSCAASGIFSRYAIGWYRQAPGKERELVAAISSGDSTNYADSVKGRFTISRDNAKNTVYLQMNSLKPEDTAVYYCATERSHLATGQGYYYVQTFYYWGQGTQVTVSS,low polyreactivity
16,QVQLVESGGGLVQAGGSLRLSCAASGIFSRYAMGWYRQAPGKERELVAAISSGGSTYYADSVKGRFTISRDNAKNTVYLQMNSLKPEDTAVYYCAVKQRDKFAGGRNDYWGQGTQVTVSS,high polyreactivity
17,QVQLVESGGGLVQAGGSLRLSCAASGIFTYNAMGWYRQAPGKERELVASITRGGSTNYADSVKGRFTISLDNAKNTVYLQRNSLKPEDTAVYYCAARVRVYSGWLYNYWGQGTQVTVSS,high polyreactivity
18,QVQLVESGGGLVQAGGSLRLSCAASGIFYRNAMGWYRQAPGKERELVAAISWSGGSTYYADSVKGRFTISRDNAKNSVYLQMNSLKPEDTAFYYCAAVGGRYPSNVVGYYYWGQGTQVTVSS,high polyreactivity
19,QVQLVESGGGLVQAGGSLRLSCAASGIFYYNAMGWNIQAPGKERELVAAISYSGGRTYYADSVKGRFTISRDNAKNTVYLQMNSLKPEDTAVYYCNAAARYGRLGGDYWGQGTQVTVSS,high polyreactivity
20,QVQLVESGGGLVQAGGSLRLSCAASGIGHNAMGWYRQAPGKERELVAAISSSGGRTYYADSVKGRFTISRDNAKNTVYLQMNSLKPEDTAVYYCARRAVYGIFDYWGQGTQVTVSS,high polyreactivity
21,QVQLVESGGGLVQAGGSLRLSCAASGIIFAANAMGWYRQAPGKERELVAAISWSGTSTYYADSVKGRFTISRDNAKNTVYLQMNSLNPEDTAVYYCAVDYYLWSGYSYLYEFEYWGQGTQVTVSS,high polyreactivity
22,QVQLVESGGGLVQAGGSLRLSCAASGIIFAANTMGWYRQAPGKDREFVAAISKRGGTTYYADSVKGRFTISRDNAKNTVYLQMNSLKPEDSAVYYCNRRNGWSRGEYWGQGTQVTVSS,high polyreactivity

row,Sequence,polyreactivity (PSR sort gate)
1,QVQLVESGGGLVQAGGSLRLSCAASGIIFAAYVMGWYRQAPGKERELVAAISKSGGRTYYADSVKGRFTISRDNAKNTVYLQMNSLKREDTAVYYCAASYTYYSIGLGTDVRYGYWGEGTQVTVSS,high polyreactivity
2,QVQLVESGGGLVQAGGSLRLSCAASGIIFAGNAMGWYRQAPGKERELVAAITRSTGSTYYADSVKGRFTISRDNAKNTVYLLMNSLKPEDTEVYYCNAGHFAHHHGYYRSKYDYWGQGTQVTVSS,low polyreactivity
3,QVQLVESGGGLVQAGGSLRLSCAASGIIFASYPMGWYRQAPGKESELVADINVTGGTTYYADTVKGRFTISRDNAKNTVYLQMNSLKPEDTAVYYCAARQSIFYSWTGVEYYYWGQGTQVTVSS,low polyreactivity
4,QVQLVESGGGLVQAGGSLRLSCAASGIIFAYNAMGWYRQAPGKERELVAAISVIAGTTYYADSVKGRFTISRDNAKNTVYLQMNSLKPEDTAVYYCAVDSVQYGGGYERLHELYYWGQGTQVTVSS,low polyreactivity
5,QVQLVESGGGLVQAGGSLRLSCAASGIIFAYNAMGWYRQAPGKERELVATITDSGGSTSYADSVKGRFTISRDNAKNTVYLQMNSLKPEDTAVYYCAVLPVYWYWRNYVYLSGYDYWGQGTQVTVSS,low polyreactivity
6,QVQLVESGGGLVQAGGSLRLSCAASGIIFAYNAMGWYRQAPGKEWELVAGITRNDGSTNYADSVKGRFTISRYNAMNTVYLQMNSLKPEDTAVYYCATGGWRWQRNPSYDYWGQGNQVTVSS,low polyreactivity
7,QVQLVESGGGLVQAGGSLRLSCAASGIIFAYYAMGWYRQAPGKERELVAAISWRGGSTYYADSVKGRFTISRDYAKNTVYLQMNSLKPEDTAVYYCAAAYLKKPYDYWGQGTQVTVSS,high polyreactivity
8,QVQLVESGGGLVQAGGSLRLSCAASGIIFCRYAMGWYTQAPGKERELVAAISSSGSTYYADSVKGRFTISRDNATNTVYLQMNSLKPEDTAVYYCAAYSYPAGEYDYWGQGTQVTVSS,low polyreactivity
9,QVQLVESGGGLVQAGGSLRLSCAASGIIFDAYGMGWYRQAPGKEMELVAAINTVGSTNYADSVKGRFTISRDNAKNTVYLQMNSLKPEDTAVYYCAADSYFYDPYDYWGQGTQVTVSS,low polyreactivity
10,QVQLVESGGGLVQAGGSLRLSCAASGIIFDDYAMGWYRQAPGKERELVAAITDSGGSTYYADSVKGRFTISRDNAKNTVYLQMNSLKPEDTAVYYCAARTQRRVNRVGYRSNYYYWGQGTQVTVSS,low polyreactivity
11,QVQLVESGGGLVQAGGSLRLSCAASGIIFDGYAMGWYRQAPGKEREFVAGITWSGGSTYYADSVKGRFTISRDNAKNTVYLQMNSLKPEDTSVYYCAAKYYWYYSYSGIPLFDYWGQGTQVTVSS,low polyreactivity
12,QVQLVESGGGLVQAGGSLRLSCAASGIIFDGYAMGWYRQAPGKEREFVAVISSSGGTTYYADSVKGRFTISRDNAKNTVYLQMNSLKPEDTAVYYCATLRYSPGWYTRDDYWGQGTQVTVSS,low polyreactivity
13,QVQLVESGGGLVQAGGSLRLSCAASGIIFDSYALGWYRQAPGKERELVAAITSRGGRTYYAVSVKGRFTISRDNAKNTVYLQMNSLKPEDTAVYYCAARAKYDRRTDGTSGYDYWGQGTQVTVSS,low polyreactivity
14,QVQLVESGGGLVQAGGSLRLSCAASGIIFDSYAMGWYRQAPGKERELVAAITSDSGRTYYADSVKGRFTISRDNAKKTVYLQMNSLKPEDTAVYYCAKRWDGPYDYWGQGTQVTVSS,low polyreactivity
15,QVQLVESGGGLVQAGGSLRLSCAASGIIFDSYAMGWYRQAPGKERELVAAITSDSGRTYYADSVKGRFTISRDNAKNTVYLHMNSLKPEDTAVYYCNADAYTYPTARYYWGQGTQVTVSS,low polyreactivity
16,QVQLVESGGGLVQAGGSLRLSCAASGIIFDSYAMGWYRQAPGKERELVAAITSRGGRTYYADSVKGRFTISRDNAKNTVSLQMNSLKPEDTAVYYCAARAKYDRRTDGTSGYDYWGQGTQVTVSS,low polyreactivity
17,QVQLVESGGGLVQAGGSLRLSCAASGIIFDSYTMGWYRQAPGKERELVAGISGSGGSTDYADSVKGRFTISRDNAKNTFYLQMNSLKPEDTAVYYCAARPTPYRDDADEYWGQGTQVTVSS,low polyreactivity
18,QVQLVESGGGLVQAGGSLRLSCAASGIIFDYNAMGWYRQAPGKERELVAAITWSGSSTFYADSVKGRFTISHDNAKNTVYLLMNSLKPEDTAVYYCNAEYYWGTYANFDYWGQGTQVTVSS,low polyreactivity
19,QVQLVESGGGLVQAGGSLRLSCAASGIIFEGNVMGWYRQAPGKERELVAAITSDTSTNYADSVKGRFTISRDNAKNTVYLQMNSLKPEDTAVYYCNAVIGTDYYYSGTAEFYYWGQGTQVTVSS,low polyreactivity
20,QVQLVESGGGLVQAGGSLRLSCAASGIIFEGYAMGWYRQAPGKERELVAAISQSGGSTRYADSVKGRFTISRDNAKNTVYLQMNSLKPEDTAVYYCAARYILWDGDSWTEFDYWGQGTQVTVSS,low polyreactivity
21,QVQLVESGGGLVQAGGSLRLSCAASGIIFENYAMGWYRQAPGKERELVAAITIGGSTYYADSVKGRFTISRDNAKNTVYLQMNSLKPEDTAVYYCAARSGAQRGGGYWGQGTQVTVSS,high polyreactivity
